Numbering of substitutions follows the chain as printed.

For orientation: Kd means the constant that tells how readily two partners part at equilibrium.

In test [1] the target is T1, cynomolgus monkey FcγRIIIaS extracellular domain, C-terminal His-tag (cynomolgus monkey, UniProt A3RFZ7 21-206 (rhesus entry)).
T1 construct: also called cyno FcγRIIIaS; cynoFcγRIIIaS; not shown: His-tag added to C-terminus
The test can be described thus: SPR (Biacore), KD of SG1 / KD of variant.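 Also: relative to parent M103205H795-SG1 carrying the SG1 human heavy chain constant region.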

The target in test [2] is T2, cynomolgus monkey FcγRIIa1 extracellular domain, C-terminal His-tag (cynomolgus monkey).
T2 construct: also called cyno FcγRIIa1; cynoFcgRIIa1; not shown: His-tag added to C-terminus
T2 chain: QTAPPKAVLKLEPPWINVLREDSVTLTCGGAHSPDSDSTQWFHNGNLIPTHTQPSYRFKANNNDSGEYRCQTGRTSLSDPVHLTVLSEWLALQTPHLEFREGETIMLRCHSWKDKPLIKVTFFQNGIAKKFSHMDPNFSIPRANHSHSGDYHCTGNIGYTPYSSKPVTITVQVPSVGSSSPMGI
The test can be described thus: SPR (Biacore), antibody captured, FcgR analyte, 25 C.

Test [3] has as its target T3, cynomolgus monkey FcγRIIa3 extracellular domain, C-terminal His-tag (cynomolgus monkey).
T3 construct: also called cyno FcγRIIa3; cynoFcgRIIa3; not shown: His-tag added to C-terminus
T3 chain: T2 chain with P95T, T121A, A128S, H133P, D135N
The description is as above.

Test [4] has as its target T4, cynomolgus monkey FcγRIIb extracellular domain, C-terminal His-tag (cynomolgus monkey).
T4 construct: also called cyno FcγRIIb; cynoFcγRIIb; not shown: His-tag added to C-terminus
T4 chain: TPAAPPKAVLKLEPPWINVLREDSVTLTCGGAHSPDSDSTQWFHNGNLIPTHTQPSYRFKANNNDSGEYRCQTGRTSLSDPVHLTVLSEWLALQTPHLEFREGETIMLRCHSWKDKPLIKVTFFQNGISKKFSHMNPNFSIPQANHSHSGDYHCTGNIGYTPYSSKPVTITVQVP
The description is as above.

Test [5] deals with T1, cynomolgus monkey FcγRIIIaS …. Described as above.
In test [6] the target is T5, human FcγRIIaH extracellular domain, C-terminal His-tag (human, UniProt P12318 34-217).
T5 construct: also called human FcγRIIa (type H); FcgRIIaH; not shown: His-tag added to C-terminus
T5 sequence: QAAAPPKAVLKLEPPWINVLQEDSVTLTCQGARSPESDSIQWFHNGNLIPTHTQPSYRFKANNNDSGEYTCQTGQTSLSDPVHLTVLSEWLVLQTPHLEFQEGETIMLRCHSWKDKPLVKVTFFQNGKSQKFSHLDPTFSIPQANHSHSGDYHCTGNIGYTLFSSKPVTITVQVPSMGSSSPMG
The description is as above.

Test [7] addresses T6, human FcγRIIaR extracellular domain, C-terminal His-tag (human, UniProt P12318 34-217).
T6 construct: also called human FcγRIIa (type R); FcgRIIaR; not shown: His-tag added to C-terminus
T6 chain: T5 sequence with H134R
Described as above.

Test [8] concerns the target T7, human FcγRIIb extracellular domain, C-terminal His-tag (human, UniProt P31994 43-217).
T7 construct: also called FcgRIIb (human); not shown: His-tag added to C-terminus
T7 sequence: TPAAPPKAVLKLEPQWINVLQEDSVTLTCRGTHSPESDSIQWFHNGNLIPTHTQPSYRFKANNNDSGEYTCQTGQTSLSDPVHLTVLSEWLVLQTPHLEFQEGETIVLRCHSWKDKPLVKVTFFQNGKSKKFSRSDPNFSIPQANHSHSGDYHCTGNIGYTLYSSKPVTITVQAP
The description is as above.

The target in test [9] is T8, human FcγRIIIaV extracellular domain, C-terminal His-tag (human, UniProt P08637 17-208).
T8 construct: also called FcgRIIIaV; not shown: His-tag added to C-terminus
T8 sequence (P08637 17-208 F176V): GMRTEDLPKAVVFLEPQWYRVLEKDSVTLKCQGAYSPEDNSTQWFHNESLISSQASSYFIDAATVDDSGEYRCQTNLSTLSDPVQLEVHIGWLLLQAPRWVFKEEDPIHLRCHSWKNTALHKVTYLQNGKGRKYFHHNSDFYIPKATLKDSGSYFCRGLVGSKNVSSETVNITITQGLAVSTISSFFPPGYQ
The test is described as above.

T1 sequence (A3RFZ7 21-206): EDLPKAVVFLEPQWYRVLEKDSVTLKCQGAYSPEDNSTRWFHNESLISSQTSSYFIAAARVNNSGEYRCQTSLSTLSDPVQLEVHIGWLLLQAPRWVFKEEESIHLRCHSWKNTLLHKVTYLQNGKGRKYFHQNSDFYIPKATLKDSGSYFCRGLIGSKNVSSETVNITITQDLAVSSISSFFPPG

B1: M103205H795-MY321/M103202L889-SK1 (antibody, human IgG1, kappa)
heavy: QVTLKESGPVLVKPTETLTLTCTVSGIDLSHDDISWVRQAPGKGLEWVGIISYAGSTYYASWAKGRLTISKDTSKNQVVLTMTNMDPVDTATYYCARGVPAYSHGGDLWGQGTLVTVSSASTKGPSVFPLAPSSKSTSGGTAALGCLVKDYFPEPVTVSWNSGALTSGVHTFPAVLQSSGLYSLSSVVTVPSSSLGTQTYICNVNHKPSNTKVDKKVEPKSCDKTHTCPPCPAPELLHGPSVFLFPPKPKDTLMISRTPEVTCVVVDVSDEDPEVKFNWYVDGVEVHNAKTKPREEQYNSTYRVVSVLTVLHQDWLNGKEYKCKVSNKALPKPIEKTISKAKGQPREPQVYTLPPSREEMTKNQVSLTCLVKGFYPSDIAVEWESNGQPENNYKTTPMVLDSDGSFFLYSKLTVDKSRWQQGNVFSCSVMHEALHNHYTQKSLSLSP
light: DIVMTQSPATLSLSPGERATLSCTSSQSVYHANWLSWFQQKPGQPPKLLIYWASTLAYGVPSRFSGSGSGTDFTLTISSLQPEDAATYYCAGGYGGGRYAFGQGTKVEIKRTVAAPSVFIFPPSDEQLKSGTASVVCLLNNFYPREAKVQWKVDNALQSGNSQESVTEQDSKDSTYSLSSTLTLSKADYEKHKVYACEVTHQGLSSPVTKSFNRGEC
With B1, the “KD fold (SG1 = 1)” value in [1] worked out at 0.33 fold. The dissociation constant Kd in [2] came out at 2300 nM; in test [3], 2900 nM; in test [4] it was 540 nM; in test [5], 11 µM; in [6], 71 nM; in test [7], 350 nM. Besides, the Kd in test [8] was 2600 nM; in [9], 3.4 µM.

For the origin of these results see US20200317768A1 (published 2020).
